This series is described as follows: yeast display, Sf9 membrane polyspecificity reagent, FACS + sequencing; frameworks hold sequencing errors. In short, it runs like this: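 Galactose-induced (36–48 hours) yeast carrying a synthetic nanobody display library were exposed to 10% biotinylated, detergent-solubilized Sf9 membrane reagent at 4 °C for 1 hour. FACS followed streptavidin microbead enrichment, using low and high (top ~1%) gates for expression (anti-HA) and reagent binding (streptavidin). Colony PCR, MiSeq 2 × 250 sequencing and CDR-length filtering followed. Labels for polyreactivity reflect the gate of origin.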
For the sequence “QVQLVESGGGLVQAGGSLRLSCAASGGIFRWYAMGWYRQAPGKEREFVAVITTDGGSTYYADSVKGRFTISRDNAKNTVYLQMNSLKPEDTAVYYCAADYTLIYDYWGQGTQVTVSS”, the “polyreactivity (PSR sort gate)” value was “low polyreactivity”.
For “QVQLVESGGGLVQAGGSLRLSCAASGGIFSLYAMGWYRQAPGKERELVAAISRRGTITYYADSVKGRFTISRDNAMNTVYLQMNSLKPEDTAVYYCAALWHAVFYADYDYWGQGTQVTVSS” the value was “high polyreactivity”.
The result for “QVQLVESGGGLVQAGGSLRLSCAASGGIFSRNAMGWYRQAPGKERELVADISRTGDSTYYADSVKGRFTISRDNAKNTVYLQMNSLKPEDTAVYYCNRDAFVGDRTVRVTTTNWGQGTQVTVSS” reads “low polyreactivity”.
The result for “QVQLVESGGGLVQAGGSLRLSCAASGGIFSRYAMGWYRQAPGKEREFVAAISFSGASTYYTDSVKGRFTISRDTAKNTVYLQMNSLKPEDTAVYYCAAYWDAEGRRYTRLDYWGQGTQVTVSS” reads “low polyreactivity”.
In the case of “QVQLVESGGGLVQAGGSLRLSCAASGGIFSRYGLGWYRQAPGKERELVAAITGRGGSTYYADSVKGRFTISRDNAKNTVYLQMNSLKPEDTAVDYCAAKVRSLNWFDYWGQGTQVTVSS”, the “polyreactivity (PSR sort gate)” value is “high polyreactivity”.
For “QVQLVESGGGLVQAGGSLRLSCAASGGIFSSYAMGGYRQAPGKERELVASISRRGTSTYYADSVKGRFTISRDNAKNTVYLQMNSLKPEDTAVYYCAAGTKYTSAVHFYYWGQGTQVTVSS” the value was “high polyreactivity”; for “QVQLVESGGGLVQAGGSLRLSCAASGGIFSSYAMGWYRQAPGKERELVASISRRGTSTYYADSVKGRFTISRDNAKNTVYLQMNSLKPEDTAVYYCAAGTKYTSAVHFYYWGQGTQVTVSS”, “high polyreactivity”; for “QVQLVESGGGLVQAGGSLRLSCAASGGIFSTYTMRWYRQAPGKERELVAAITTGNSTYYADSVKGRFTISRDNAKNTVYLQMNSLKPEDTAVYYCAAFAASRDYYRRLFHDGYDYWGQGTQVTVSS”, “low polyreactivity”.
“QVQLVESGGGLVQAGGSLRLSCAASGGIFSYYAMGWYRQAPGKEREFVAAIDWGGGSTYYADSVKGRFTISRDNAKNTVYFQMNSLKPEDTAVYYCAAEIYPIGWDDYDYWGQGTQVTVSS”: the “polyreactivity (PSR sort gate)” value was “low polyreactivity”.
For “QVQLVESGGGLVQAGGSLRLSCAASGGIFTGYAMGWYRQAPGKERELVASITISGGRTYYADSVKGRFTISRDNAKNTVYLQINSLKPEDTAVYYCAATIPWYKYRYYYWGQGTQVTVSS” the value was “high polyreactivity”.
The result for “QVQLVESGGGLVQAGGSLRLSCAASGGIFTYYTMGWYRQAPGKERELVAAISRRVGRTYYADSVKGRFTISRDKANNTVYLQMNSLKPEDTAVYYCNADSRRRLFDYWGQGTQVTVSS” reads “high polyreactivity”.
Consider “QVQLVESGGGLVQAGGSLRLSCAASGGIFVGNAMGWYRQAPGKERELVAAISQRGGRTYYADSVKGRFTISRDNAKNTVYLQMNSLKPEDTAVYYCAAGYWLSTDSGYPFQYYLYDYWGQGTQVTVSS”, for which the “polyreactivity (PSR sort gate)” value is recorded as “high polyreactivity”.
“QVQLVESGGGLVQAGGSLRLSCAASGGIFVRYAMGWYRQAPGKERELVAAISSSGDRTYYADSVKGRFTISRDNAKNTVYLQMHSLKPEDTAVYYCNADRGHDKVDYWGQATQVTVSS”: the “polyreactivity (PSR sort gate)” value is “low polyreactivity”.
For “QVQLVESGGGLVQAGGSLRLSCAASGGIFVSYAMGWYRQAPGKERELVARINAVDGTNYADSVKGRFTISRDNAKYTVYLQMKSVKPEDTAVYYCAVRSPVLASDYGYYFLRDYWGQGTQVTVSS” the value was “low polyreactivity”; for “QVQLVESGGGLVQAGGSLRLSCAASGGIFVSYAMGWYRQAPGKEWELVAAITSGGGTSYADSVKGRFTISRDNAKNTVYLQMNSLKPEDTAVYYCNADGYLAERFVIRLDEYRHYDYWGQGTQVTVSS”, “low polyreactivity”; for “QVQLVESGGGLVQAGGSLRLSCAASGGIFWSYAMGWYRQAPGKERELVAAISSGTYYADSVKGRFTISRDNAKNTVYLQMNSLIPEDTAVYYWNVQTYNVAWFYRYDMNYWGQGPQVTVSS”, “low polyreactivity”.
The result for “QVQLVESGGGLVQAGGSLRLSCAASGGIFWYNAMGWYRQAPGKERELVADISSSGITYYADSVKGRFTISRDNAKNTVYLQMKSLKPEDTAVYYCAADSTTRPGLRVYDDYDYWGQGTQVTVSS” reads “low polyreactivity”; that for “QVQLVESGGGLVQAGGSLRLSCAASGGIFWYYAMGWYRQAPGKERELVAAINSGGSTYYADSVKGRFTISRDNAKNTVYLQMNSLNPEDTAVYYCNTRYPFSRYDYWGQGTQVTVSS”, “low polyreactivity”.
Regarding “QVQLVESGGGLVQAGGSLRLSCAASGGIFYAYAMGWYRQAPGKERELVAAISISDGDTYYADSVKGRFTISRDNAKNTVYLQMNSLKPEDTAVYYCAAEQEYDLREYDYWGQGTQVTVSS”, the “polyreactivity (PSR sort gate)” value is “high polyreactivity”.
As for “QVQLVESGGGLVQAGGSLRLSCAASGGIFYLYAMGWYRQAPGKEREFVAAISSSGGSTNYADSVKGRFTISRDNAKNTVYLQMNSLKPEDTAVYYCAARWLPFLDLGKTYEYWGQGTQVTVSS”, the “polyreactivity (PSR sort gate)” value is given as “high polyreactivity”.
The result for “QVQLVESGGGLVQAGGSLRLSCAASGGIFYSNAMGWYRQAPGKERELVAVISGNGGRTYYADSVKGRFTISRDNAKNTVYLQMNSLKPEDTAVYYCATPSYTTAYVEGDYWGQGTQVTVSS” reads “low polyreactivity”; that for “QVQLVESGGGLVQAGGSLRLSCAASGGIFYTYAMGWYRQAPGKEREFVAAISRRGSSTYYADSVKGRFTISRDNEKNTVYLQMNSLKPEDTAVYYCAKSYAPYSYANNDYWGQGTQVTVSS”, “low polyreactivity”; that for “QVQLVESGGGLVQAGGSLRLSCAASGGIISTNAMGWYRQAPGKERDLVAAISRRGGSTYYADSVKGRFTISRDYAKNSVYLQMNCLKPEDTAVYYCNKYLRLFSYGRGYDYWGQGTQVTVSS”, “high polyreactivity”.
For “QVQLVESGGGLVQAGGSLRLSCAASGGILDTSAMGWYRQAPGKERELVAAITSGGHTNYADSVKGRFTISRDNAKNTVYLQMNSLKPEDTAVYYCNVVTWYYVFRPWEYDYWGHGTQVTVSS” the value was “low polyreactivity”.
The result for “QVQLVESGGGLVQAGGSLRLSCAASGGILPKYAMGWYRQAPGKERELVAAIDGGGDSTYYADSVKGRFTISRDNAKNTVYLQMNSLKPEDTAVFYCAAYQWTGYYLEYDYWGQGTQVTVSS” reads “low polyreactivity”.
Consider “QVQLVESGGGLVQAGGSLRLSCAASGGILSDYAMGWYRQAPWKERELVAAITISGGRTNYADSVKGRFTISRDNAKNTVYLQMNSLKPEDTAVYYCAAGFYPYYYWGQGTQVTVSS”, for which the “polyreactivity (PSR sort gate)” value is reported as “low polyreactivity”.
The result for “QVQLVESGGGLVQAGGSLRLSCAASGGILTKYAMGWYRQAPGKEREFVAAISWRGGTTYYADSVKGRFTISRDNAKNTVYLQMNSLKPEDSAVYYCAADILWYFGQEYDYWGKGTQVTVSS” reads “low polyreactivity”; that for “QVQLVESGGGLVQAGGSLRLSCAASGGILVGYALGWYRQAPGKERELVAAITSTGSTYYADSVKGRFTISRDNAKNTVYLQMNSLKPEDTAVYYCNAIGLHRYDYWGQGTQETVSS”, “low polyreactivity”.
For “QVQLVESGGGLVQAGGSLRLSCAASGGILVGYAMGRYRQAPGKERELVAANNYSGGSTNYADSVKGRFTISRDNAKYSVYLQMNSLKPEDTAVYFCAARSTARYGYWGQGTQVTVSS” the value was “low polyreactivity”.
The result for “QVQLVESGGGLVQAGGSLRLSCAASGGISHRYAMGWYRQAPGKERELVAAITASGTSTNYADSVKGRFTISRDNAKNTVYLQMNSLKPEDTAVYYCAARYYSFFYPYYYWGQGTQVTVSS” reads “high polyreactivity”; that for “QVQLVESGGGLVQAGGSLRLSCAASGGIVDSNAMGWYRQAPGKERELVAAISDSGGSTYYADSVKGRFTISRDNAKNTVYLQMNSLKPEDTAVYYCAADSDYHFVNYRFGMDYWGQGTQVTVSS”, “low polyreactivity”.
In the case of “QVQLVESGGGLVQAGGSLRLSCAASGGIYYSNAMGWYRQAPGKERELVAAISRDGTITYYADSEKGRFTSSRDNAKNTVYLQMNSLKPEDTAVYSCASDPSIPSWYSIYVYWGQGTQVTVSS”, the “polyreactivity (PSR sort gate)” value is “high polyreactivity”.
The result for “QVQLVESGGGLVQAGGSLRLSCAASGGMGWYRQAPGKERELVATISSVGSTNYADSVKGRFTISRDNAKNTVYLQMNSLKPEDTAVYYCNANGVQYFLYGYWGQGTQVTVSS” reads “low polyreactivity”.
For “QVQLVESGGGLVQAGGSLRLSCAASGGNFGYYAMGWYRQAPGKEREFVAAITLSGGRTYYADSVKGRFTISRDNAKNTVYLQMNSLKPEDTAVYYCAAKGTRRGKERNYWGQGTQVTVSS” the value was “high polyreactivity”; for “QVQLVESGGGLVQAGGSLRLSCAASGGNFVSYAMGWYRQAPGKERDLVARINSVDGTNYADSVKGRFTISRDNAKNTVYLQMNSLKPEDTAVYYCATGGYYSAIVYGGYDYWGQGTQVTVSS”, “low polyreactivity”.
For “QVQLVESGGGLVQAGGSLRLSCAASGGSFPDNARGWYRQAPGKERELVAAISFSGSSTYADSVKGRFTISRDNAKKTVNLQMNSLKPEDTAVYYCNTDGYIYRYRFDYWGQGTQVTVSS” the value was “low polyreactivity”; for “QVQLVESGGGLVQAGGSLRLSCAASGGTFFSYAMGWYRQAPGKERELVAAISRGGDTTYADSVKGRFTISRDNAKNTVYLQMNSLKPEDTAVYYCAARVPPLLTDSPVFPYDYWGQGTQVTVSS”, “low polyreactivity”.
“QVQLVESGGGLVQAGGSLRLSCAASGGTFFVYAMGWSRPAPGKERELVAAISGSGGRTYYADSVKGRFTISRDNAKNTVYLQMNSLTPEDTAVYYCNATYLTRSTRLSDFDYWGQGTQVTVSS”: the “polyreactivity (PSR sort gate)” value is recorded as “high polyreactivity”.
In the case of “QVQLVESGGGLVQAGGSLRLSCAASGGTFGAYAMGWYRQAPGKERELVAAISGSGARTYYADSVKGRFTISRDNAKNTVYVQMNSLKPEDTAVYYCAARSTGTRVGEYDYWGQGTQVTVSS”, the “polyreactivity (PSR sort gate)” value is “high polyreactivity”.
In the case of “QVQLVESGGGLVQAGGSLRLSCAASGGTFGLNAMGWYRQAPGKERELVAAITVTGGSDTYYADSVKGRFTISRDNAKNTVYLQMNSLKPEDTAVYYCAADIGKLYDYWGQGTQVTVSS”, the “polyreactivity (PSR sort gate)” value is reported as “low polyreactivity”.
The result for “QVQLVESGGGLVQAGGSLRLSCAASGGTFGPYAMGWYRQAPGKERELVATIRSSGGRTYYADSVKGRFTISRDNAKNTVYFQMNSLKPEDTAVYYCAATEFRYFEGGAYFEGYYWGQGTQVTVSS” reads “low polyreactivity”.

The values above are taken from the nanobody polyreactivity screen of Harvey et al. (2022).
